Article PMC5890335 (Journal of immunology (Baltimore, Md. : 1950), 2018)

Assays:
[1] = target: H2-D^d MHC-I molecule on RMAS-D^d cells (mouse); experiment: flow cytometry on cells
[2] = target: H2-D^d MHC-I molecule (Mus musculus, UniProt P01900); experiment: Peptide induction of surface H2-D^d expression on RMAS-D^d cells; format: cell-based; conditions: fluorescence index, ANOVA, compared with s.p.VV10, Fig 4c
Sequence of H2-D^d MHC-I molecule (P01900 whole entry, looked up): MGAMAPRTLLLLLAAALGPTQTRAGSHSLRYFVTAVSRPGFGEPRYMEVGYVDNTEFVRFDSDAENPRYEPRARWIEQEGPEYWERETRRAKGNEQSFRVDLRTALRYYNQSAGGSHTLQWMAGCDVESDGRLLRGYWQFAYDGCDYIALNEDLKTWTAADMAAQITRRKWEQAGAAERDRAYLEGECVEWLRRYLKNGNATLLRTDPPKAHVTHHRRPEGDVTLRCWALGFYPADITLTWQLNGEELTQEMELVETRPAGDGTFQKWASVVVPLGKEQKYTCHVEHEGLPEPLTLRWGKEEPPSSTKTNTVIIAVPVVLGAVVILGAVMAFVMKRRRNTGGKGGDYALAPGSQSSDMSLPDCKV

Sequence of H2-D^d MHC-I molecule on RMAS-D^d cells (mouse) (P01900 25-365): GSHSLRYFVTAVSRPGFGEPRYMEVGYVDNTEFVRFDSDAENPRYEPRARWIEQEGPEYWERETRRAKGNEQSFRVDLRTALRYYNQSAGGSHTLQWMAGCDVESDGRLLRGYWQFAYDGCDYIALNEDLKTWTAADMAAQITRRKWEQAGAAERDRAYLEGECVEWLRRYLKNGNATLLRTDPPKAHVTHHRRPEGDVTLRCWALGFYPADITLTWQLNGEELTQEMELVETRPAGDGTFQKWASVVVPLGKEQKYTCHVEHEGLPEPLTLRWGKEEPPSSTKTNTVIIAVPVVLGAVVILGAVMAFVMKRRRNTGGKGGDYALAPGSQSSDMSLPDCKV

Molecule | FI0.5 (peptide concentration giving a 50% increase in H2-D^d surface expression) [1] [µg/mL] | comparison of H2-D^d binding titration curves of the 9-mer peptides [2]
s.p.TT10 (…), minimal V3 epitope of HIV-1MN gp120, gp120 314-323 (peptide) | 1 | –
IGPGRAFYV [s.p.V9] | – | do not differ from each other
IGPGRAFYT [s.p.T9] | – | do not differ from each other
IGPGRAFYVV [s.p.VV10 (…)] | 1 | –
